# In patent US20050070001A1, “Xylosyltransferase and isoforms thereof” (priority 1999, published 2005):
# T1: XT-II (Homo sapiens, UniProt Q9H1B5, R305T)
# T1 construct: polyhistidine leader of vector pcDNA4/HisMax-TOPO (own knowledge of the vector); made in house; host or cells: CHO-K1, transient transfection with pCG226-XT-II; medium treated with anti-Xpress antibody and protein G agarose beads
# T1 sequence (Q9H1B5 46-865 R305T): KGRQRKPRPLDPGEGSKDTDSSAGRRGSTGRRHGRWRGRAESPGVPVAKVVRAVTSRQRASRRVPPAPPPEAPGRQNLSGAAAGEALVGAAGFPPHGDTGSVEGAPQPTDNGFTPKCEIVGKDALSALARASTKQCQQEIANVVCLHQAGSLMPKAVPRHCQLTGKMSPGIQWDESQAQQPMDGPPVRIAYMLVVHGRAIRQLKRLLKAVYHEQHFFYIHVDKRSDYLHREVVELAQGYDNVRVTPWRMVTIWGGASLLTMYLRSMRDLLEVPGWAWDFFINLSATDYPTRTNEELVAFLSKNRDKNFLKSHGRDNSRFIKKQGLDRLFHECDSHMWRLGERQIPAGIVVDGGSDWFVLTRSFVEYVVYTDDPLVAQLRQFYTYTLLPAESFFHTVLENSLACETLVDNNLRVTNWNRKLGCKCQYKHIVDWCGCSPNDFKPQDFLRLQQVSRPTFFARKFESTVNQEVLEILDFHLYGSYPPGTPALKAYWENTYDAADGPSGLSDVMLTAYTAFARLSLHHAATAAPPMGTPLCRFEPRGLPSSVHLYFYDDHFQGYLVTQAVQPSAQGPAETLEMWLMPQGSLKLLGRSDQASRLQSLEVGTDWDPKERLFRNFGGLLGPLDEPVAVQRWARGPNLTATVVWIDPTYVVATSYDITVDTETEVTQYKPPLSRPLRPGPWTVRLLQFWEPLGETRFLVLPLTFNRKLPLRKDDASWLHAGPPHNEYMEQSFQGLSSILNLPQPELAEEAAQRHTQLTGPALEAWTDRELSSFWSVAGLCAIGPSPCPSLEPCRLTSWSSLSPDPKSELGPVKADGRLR
# Target: T1, XT-II
# Assay: XT activity assay of XT-II fused to aminoterminal peptide tag, expressed in CHO-K1 cells
# Assay type: biochemical
# Description: The degenerate primers PFF-sense and Lysc-inv1 which were designed upon the amino acid sequence of proteolytic cleaved peptides of human XT-I were used in a PCR reaction with first strand cDNA of placenta poly(A)^+ mRNA as template. […] To clone the complete coding sequence of the novel cDNA, the RACE strategy was employed. The cDNA finally obtained was 3608 bp (FIG. 8A) and contained a single open reading frame encoding a protein of 865 amino acids with a molecular mass of 97.000. The 3′-untranslated region is 850 bp and a 5′-untranslated region of 149 bp was identified with an in-frame stop codon upstream of the ATG codon. […] No detectable XT activity was recovered by the affinity purification from a control transfection sample. The substrate specificity of the recombinant XT-I was similar to that of the XT-I isolated from human body fluids and cell culture supernatants.
# Determination of XT activity. Determination of XT activity is based on the incorporation of [14C]-D-xylose into the recombinant bikunin according to a previously described method (Brinkmann et al., 1997, J. Biol. Chem., 272, 11171-11175). For analysis of the substrate specificity of the recombinant xylosyltransferases synthetic peptides containing the XT recognition sequence were used as acceptor. […] Incorporated radioactivity was determined by liquid scintillation counting. […]
molecule,measurement,value
"XT-II: human xylosyltransferase isoform 2, 865 amino acids, FIG. 8B (protein, UniProt Q9H1B5 1-865, looked up, full-length) MVASARVQKLVRRYKLAIATALAILLLQGLVVWSFSGLEEDEAGEKGRQRKPRPLDPGEGSKDTDSSAGRRGSTGRRHGRWRGRAESPGVPVAKVVRAVTSRQRASRRVPPAPPPEAPGRQNLSGAAAGEALVGAAGFPPHGDTGSVEGAPQPTDNGFTPKCEIVGKDALSALARASTKQCQQEIANVVCLHQAGSLMPKAVPRHCQLTGKMSPGIQWDESQAQQPMDGPPVRIAYMLVVHGRAIRQLKRLLKAVYHEQHFFYIHVDKRSDYLHREVVELAQGYDNVRVTPWRMVTIWGGASLLRMYLRSMRDLLEVPGWAWDFFINLSATDYPTRTNEELVAFLSKNRDKNFLKSHGRDNSRFIKKQGLDRLFHECDSHMWRLGERQIPAGIVVDGGSDWFVLTRSFVEYVVYTDDPLVAQLRQFYTYTLLPAESFFHTVLENSLACETLVDNNLRVTNWNRKLGCKCQYKHIVDWCGCSPNDFKPQDFLRLQQVSRPTFFARKFESTVNQEVLEILDFHLYGSYPPGTPALKAYWENTYDAADGPSGLSDVMLTAYTAFARLSLHHAATAAPPMGTPLCRFEPRGLPSSVHLYFYDDHFQGYLVTQAVQPSAQGPAETLEMWLMPQGSLKLLGRSDQASRLQSLEVGTDWDPKERLFRNFGGLLGPLDEPVAVQRWARGPNLTATVVWIDPTYVVATSYDITVDTETEVTQYKPPLSRPLRPGPWTVRLLQFWEPLGETRFLVLPLTFNRKLPLRKDDASWLHAGPPHNEYMEQSFQGLSSILNLPQPELAEEAAQRHTQLTGPALEAWTDRELSSFWSVAGLCAIGPSPCPSLEPCRLTSWSSLSPDPKSELGPVKADGRLR",enzymatic transfer of xylose to the acceptor peptides,no enzymatic transfer of xylose
